Source: patent US20130011406A1 (KOLLTAN PHARMACEUTICALS, published 2013)

B1: Fab antibody Ab20 (Fab, V domains shown)
VH: EVQLLESGGGLVQPGGSLRLSCAASGFTFSRYGMAWVRQAPGKGLEWVSSIRPSGGYTAYADSVKGRFTISRDNSKNTLYLQMNSLRAEDTAVYYCARLPARFDYYYGLDVWGQGTTVTVSS
VL: DIQMTQSPATLSLSPGERATLSCRASQSVNIYLAWYQQRPGQAPRLLIYDASNRAIGVPARFSGTGSGTDFTLTISSLEPEDSAVYYCQQRDSWPPRLSFGGGTKVEIK
notes: Fab from a phage library
B2: Fab antibody Ab2 (Fab, V domains shown)
VH: EVQLLESGGGLVQPGGSLRLSCAASGFTFSNYKMGWVRQAPGKGLEWVSWIYPSGGGTFQADSVKGRFTISRDNSKNTLYLQMNSLRAEDTAVYYCARVRVGSTGNFDYWGQGTLVTVSS
VL: DIQMTQSPATLSLSPGERATLYCRASQSVSNYVAWYQQRPGQAPRLLMYDTSKRATGIPARFSGSGSGTDFTLTISSLEPEDFAVYYCQQRSYWFAFGGGTKVEIK
notes: Fab from a phage library
B3: Fab antibody Ab13 (Fab, V domains shown)
VH: EVQLLESGGGLVQPGGSLRLSCAASGFTFSNYTMHWVRQAPGKGLEWVSVIYPSGGMTKYADSVKGRFTISRDNSKNTLYLQMNSLRAEDTAVYYCARGSTTFDYWGQGTLVTVSS
VL: DIQMTQSPGTLSLSPGERATLSCRASQSVRSNYLAWYQQKPGQAPRLLIYGASSRATGIPDRFSGSGSGTDFTLTISRLEPEDFAVYYCQQRSNWPITFGQGTRLEIK
notes: Fab from a phage library
B4: Fab antibody Ab3 (Fab, V domains shown)
VH: EVQLLESGGGLVQPGGSLRLSCAASGFTFSPYNMMWVRQAPGKGLEWVSRISPSGGDTHYADSVKGRFTISRDNSKNTLYLQMNSLRAEDTAVYYCARGSRSSWSTPYYWGQGILVTVSS
VL: QSALTQPPSASGTPGQRVTISCSGSSSNIGNNYVYWYQQLPGTAPKLLIYRSNQRPSGVPDRFSGSKSGASASLAISGLRSEDEADYYCAAWDDSLIGPVFGGGTKLTVL
notes: Fab from a phage library
B5: Fab antibody Ab17 (Fab, V domains shown)
VH: EVQLLESGGGLVQPGGSLRLSCAASGFTFSNYTMIWVRQAPGKGLEWVSRIWPSGGGTDYADSVKGRFTISRDNSKNTLYLQMNSLRAEDTATYYCARRVGASRYFDLWGRGTLVTVSS
VL: DIQMTQSPSSLSASVGDRVTVTCRASQNIDNYLNWYQQRPGKAPELLIYAASSLQSGVPSRFSGSGSGTDFTLTISSLQPEDFATYYCQQSYSNSRTFGQGTKVEIK
notes: Fab from a phage library

Molecular target: T1, recombinant D4 domain polypeptide of human KIT (V308 to K412, with His tag) (human, UniProt P10721 26-412)
T1 construct: also called D4 domain of human KIT
T1 sequence (P10721 other isoform, or with tags, fused parts or gaps limits assumed): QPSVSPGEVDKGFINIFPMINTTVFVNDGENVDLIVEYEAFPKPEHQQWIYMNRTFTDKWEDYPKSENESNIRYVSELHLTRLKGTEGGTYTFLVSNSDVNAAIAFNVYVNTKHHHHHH
Experiment: solid phase ELISA, D4 polypeptide coated on plate

| Binder | binding result |
| --- | --- |
| B1 | binds |
| B2 | binds |
| B3 | binds |
| B4 | binds |
| B5 | binds |
